Test results published in paper PMC12800186, “Intelectin-2 is a broad-spectrum antimicrobial lectin” (Nature Communications, 2026).
Several values for one entry are separate records, joined by “and”; a condition that tells them apart may be missing. Equal entries are not always repeated.

B1: StrepII-tagged human intelectin-2 (A177S, C311G) (natural protein, UniProt Q8WWU7 27-325, looked up)
chain: AAASSLEMLSREFETCAFSFSSLPRSCKEIKERCHSAGDGLYFLRTKNGVVYQTFCDMTSGGGGWTLVASVHENDMRGKCTVGDRWSSQQGNKADYPEGDGNWANYNTFGSAEAATSDDYKNPGYYDIQAKDLGIWHVPNKSPMQHWRNSSLLRYRTNTGFLQRLGHNLFGIYQKYPVKYRSGKCWNDNGPAIPVVYDFGDAKKTASYYSPYGQREFVAGFVQFRVFNNERAANALCAGIKVTGCNTEHHCIGGGGFFPQGKPRQCGDFSAFDWDGYGTHVKSSGSREITEAAVLLFYR
notes: Human intelectin-2 (hItln2, ITLN2), cDNA AY358905; secreted from HEK293 cells; mass and extinction coefficient were calculated without the signal peptide; A177S introduces a glycosylation site, C311G removes an unpaired cysteine; For low pH and low salt experiments the protein was exchanged into PIPES buffer, pH 5.5; also called hItln2; StrepII-hItln2; source: suspension-adapted HEK293 cells, …
B2: StrepII-tagged mouse intelectin-2 (natural protein, UniProt Q80ZA0 20-313, looked up)
chain: AEENLDTNRWGNSFFSSLPRSCKEIKQEDTKAQDGLYFLRTENGVIYQTFCDMTTAGGGWTLVASVHENNLRGRCTVGDRWSSQQGNRADYPEGDGNWANYNTFGSAEGATSDDYKNPGYFDIQAENLGIWHVPNNSPLHTWRNSSLLRYRTFTGFLQRLGHNLFGLYQKYPVKYGEGKCWTDNGPAFPVVYDFGDAQKTASYYSPSGRNEFTAGYVQFRVFNNERAASALCAGVRVTGCNTEHHCIGGGGFFPEFDPEECGDFAAFDANGYGTHIRYSNSREITEAAVLLFYR
modifications: glycosylated (N-glycosylation examined with PNGase F)
notes: Mouse intelectin-2 (mItln2), GenBank AAO60215, UniProt Q80ZA0; amplified from the start to the stop codon and secreted from HEK293 cells; mass and extinction coefficient were calculated without the signal peptide; Non-covalent oligomers of variable size; also called mItln2; strep-mItln2; source: suspension-adapted HEK293 cells, transient transfection, purified from the expression medium …

Tests used:
[1] = molecular target: the molecule itself; experiment: not stated; recombinant StrepII-hItln2; covalent trimers and higher-order oligomers (Supplementary Fig. 8E, F)
[2] = molecular target: the molecule itself; experiment: cross-linking; 1 mg/mL mItln2 in HEPES/EDTA buffer with BS3 (0.1-5 mM), RT, 30 min; SDS-PAGE with DTT

| Protein | stoichiometry N [1] | stoichiometry N [2] |
| --- | --- | --- |
| B1 | ≥ 3 | – |
| B2 | – | 2 and 3 and 6 |
